Experimental data reported in patent US20260167693A1 (ANGELES THERAPEUTICS, published 2026).
Values belong to the binder of their own block, whether it stands above or below them.

Tests used:
[1] = target: T1, human CD19 (human, UniProt P15391 20-556); assay: cell-based or functional assay
T1 sequence (looked up): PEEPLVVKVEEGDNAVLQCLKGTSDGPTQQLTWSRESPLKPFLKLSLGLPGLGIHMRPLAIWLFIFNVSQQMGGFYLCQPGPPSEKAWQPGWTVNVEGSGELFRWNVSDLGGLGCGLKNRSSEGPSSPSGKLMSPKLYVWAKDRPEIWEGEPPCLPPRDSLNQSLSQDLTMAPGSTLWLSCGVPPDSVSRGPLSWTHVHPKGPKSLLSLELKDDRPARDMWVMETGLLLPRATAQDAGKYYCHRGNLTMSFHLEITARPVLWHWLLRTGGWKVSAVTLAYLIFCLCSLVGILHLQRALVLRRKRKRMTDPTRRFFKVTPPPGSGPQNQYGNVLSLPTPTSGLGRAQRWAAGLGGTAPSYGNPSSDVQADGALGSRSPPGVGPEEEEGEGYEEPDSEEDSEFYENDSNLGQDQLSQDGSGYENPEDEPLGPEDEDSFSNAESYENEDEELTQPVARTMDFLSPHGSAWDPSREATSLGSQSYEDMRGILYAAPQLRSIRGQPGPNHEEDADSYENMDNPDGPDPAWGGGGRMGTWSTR

[2] = target: T1, human CD19; assay: cell-based or functional assay; remark: listed apart in the source
[3] = target: T2, CD19-ECD-GGSG-NLuc-AcV5 (human); assay: NLuc binding assay, SIR on Jurkat-NFAT-Luc cells
T2 construct: also called CD19-GGSG-NLuc-AcV5; Flag-CD19-GGSG-NLuc-AcV5
T2 chain: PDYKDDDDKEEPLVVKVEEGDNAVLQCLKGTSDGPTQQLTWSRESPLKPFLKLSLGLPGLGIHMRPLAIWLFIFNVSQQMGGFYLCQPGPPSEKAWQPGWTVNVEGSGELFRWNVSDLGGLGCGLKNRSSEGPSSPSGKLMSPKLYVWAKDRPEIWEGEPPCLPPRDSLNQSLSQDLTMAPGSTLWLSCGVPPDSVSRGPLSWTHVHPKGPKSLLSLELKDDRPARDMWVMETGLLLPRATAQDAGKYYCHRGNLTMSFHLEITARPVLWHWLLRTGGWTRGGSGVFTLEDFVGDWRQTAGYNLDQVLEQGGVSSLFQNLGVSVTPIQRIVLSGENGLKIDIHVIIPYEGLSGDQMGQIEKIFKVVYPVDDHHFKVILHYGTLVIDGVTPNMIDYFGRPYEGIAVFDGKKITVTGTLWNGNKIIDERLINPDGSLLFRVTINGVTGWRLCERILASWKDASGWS

[4] = target: T2, CD19-ECD-GGSG-NLuc-AcV5; assay: NLuc binding assay, SIR on Jurkat-NFAT-GFP cells
[5] = target: T2, CD19-ECD-GGSG-NLuc-AcV5; assay: NLuc binding assay, single chain unit in Jurkat-NFAT-GFP cells

B1: CD8SP-hu-FMC65-1-vL-[hTCRb-D59C]-F-P2A-SP-hu-FMC65-1-vH-[hTCRa-T45C] (other)
TCR beta: DVVMTQSPSSLSASVGDRVTITCRASQDISKYLNWYQQKPGKAPKLLIYHTSRLHSGVPSRFSGSGSGTDFTLTISSLQPEDFATYYCQQGNTLPYTFGGGTKVEIKEDLKNVFPPEVAVFEPSEAEISHTQKATLVCLATGFYPDHVELSWWVNGKEVHSGVSTCPQPLKEQPALNDSRYCLSSRLRVSATFWQNPRNHFRCQVQFYGLSENDEWTQDRAKPVTQIVSAEAWGRADCGFTSESYQQGVLSATILYEILLGKATLYAVLVSALVLMAMVKRKDSRG
TCR alpha: QVQLQESGPGLVKPSQTLSLTCTVSGVSLPDYGVSWIRQPPGKGLEWIGVIWGSETTYYNSALKSRVLISVDTSKNQVSLKLSSVTAADTAVYYCARHYYYGGSYAMDYWGQGTTVTVSSIQNPDPAVYQLRDSKSSDKSVCLFTDFDSQTNVSQSKDSDVYICDKTVLDMRSMDFKSNSAVAWSNKSDFACANAFNNSIIPEDTFFPSPESSCDVKLVEKSFETDTNLNFQNLSVIGFRILLLKVAGFNLLMTLRLWSS
- NFAT-GFP (%) after co-culture with RAJI cells [1]: 1.35%

B3: CD8SP-hu-FMC65-1-vL-[hTCRb-S17C]-F-P2A-SP-hu-FMC65-1-vH-[hTCRa-Y10C] (other)
TCR beta: DVVMTQSPSSLSASVGDRVTITCRASQDISKYLNWYQQKPGKAPKLLIYHTSRLHSGVPSRFSGSGSGTDFTLTISSLQPEDFATYYCQQGNTLPYTFGGGTKVEIKEDLKNVFPPEVAVFEPCEAEISHTQKATLVCLATGFYPDHVELSWWVNGKEVHSGVSTDPQPLKEQPALNDSRYCLSSRLRVSATFWQNPRNHFRCQVQFYGLSENDEWTQDRAKPVTQIVSAEAWGRADCGFTSESYQQGVLSATILYEILLGKATLYAVLVSALVLMAMVKRKDSRG
TCR alpha: QVQLQESGPGLVKPSQTLSLTCTVSGVSLPDYGVSWIRQPPGKGLEWIGVIWGSETTYYNSALKSRVLISVDTSKNQVSLKLSSVTAADTAVYYCARHYYYGGSYAMDYWGQGTTVTVSSIQNPDPAVCQLRDSKSSDKSVCLFTDFDSQTNVSQSKDSDVYITDKTVLDMRSMDFKSNSAVAWSNKSDFACANAFNNSIIPEDTFFPSPESSCDVKLVEKSFETDTNLNFQNLSVIGFRILLLKVAGFNLLMTLRLWSS
- NFAT-GFP (%) after co-culture with RAJI cells [1]: 1.99%

B4: CD8SP-hu-FMC65-1-vL-[hTCRb-E15C]-F-P2A-SP-hu-FMC65-1-vH-[hTCRa-S15C] (other)
TCR beta: DVVMTQSPSSLSASVGDRVTITCRASQDISKYLNWYQQKPGKAPKLLIYHTSRLHSGVPSRFSGSGSGTDFTLTISSLQPEDFATYYCQQGNTLPYTFGGGTKVEIKEDLKNVFPPEVAVFCPSEAEISHTQKATLVCLATGFYPDHVELSWWVNGKEVHSGVSTDPQPLKEQPALNDSRYCLSSRLRVSATFWQNPRNHFRCQVQFYGLSENDEWTQDRAKPVTQIVSAEAWGRADCGFTSESYQQGVLSATILYEILLGKATLYAVLVSALVLMAMVKRKDSRG
TCR alpha: QVQLQESGPGLVKPSQTLSLTCTVSGVSLPDYGVSWIRQPPGKGLEWIGVIWGSETTYYNSALKSRVLISVDTSKNQVSLKLSSVTAADTAVYYCARHYYYGGSYAMDYWGQGTTVTVSSIQNPDPAVYQLRDCKSSDKSVCLFTDFDSQTNVSQSKDSDVYITDKTVLDMRSMDFKSNSAVAWSNKSDFACANAFNNSIIPEDTFFPSPESSCDVKLVEKSFETDTNLNFQNLSVIGFRILLLKVAGFNLLMTLRLWSS
- NFAT-GFP (%) after co-culture with RAJI cells [1]: 2.48%

B5: CD8SP-V5-[hTCRb-KACIAH]-F-P2A-CD8SP-hCD19-EUK5-13-vL-Gly-Ser-Linker-hCD19-EUK5-13-vH-Myc-[hTCRa-CSDVP]-F-F2A-PAC (other)
TCR beta: GKPIPNPLLGLDSTGSGEDLKNVFPPEVAVFEPSKAEIAHTQKATLVCLATGFYPDHVELSWWVNGKEVHSGVCTDPQPLKEQPALNDSRYCLSSRLRVSATFWQNPRNHFRCQVQFYGLSENDEWTQDRAKPVTQIVSAEAWGRADCGITSASYHQGVLSATILYEILLGKATLYAVLVSALVLMAMVKRKDSRG
TCR alpha: LPVLTQPPSVSVAPGKTARITCGGNNIGSKSVHWYQQKPGQAPVLVVYDDSDRPSGIPERFSGSNSGNTATLTISRVEAGDEADYYCQVWDSSSDYVVFGGGTKLTVLGGGGSGGGGSGGGGSEVQLVQSGAEVKKPGESLKISCKGSGYSFTSYWIGWVRQMPGKGLEWMGIIYPGDSDTRYSPSFQGQVTISADKSISTAYLQWSSLKASDTAMYYCARQVWGWQGGMYPRSNWWYNLDSWGQGTLVTVSSEQKLISEEDGSGIQNPDPAVYQLRDSKSSDKSVCLFTDFDSQTNVSQSKDSDVYITDKCVLDMRSMDFKSNSAVAWSNKSDFACANAFNNSIIPEDTFFPSSDVPCDVKLVEKSFETDTNLNFQNLSVIGFRILLLKVAGFNLLMTLRLWSS
- NFAT-GFP (%) after overnight co-culture with RAJI cells [2]: 6.67%

More lines, now with the values ahead:

- NFAT-GFP (%) after co-culture with RAJI cells [1]: 0.9%
B2: CD8SP-hu-FMC65-1-vL-[hTCRb-S77C]-F-P2A-SP-hu-FMC65-1-vH-[hTCRa-T45C] (other)
TCR beta: DVVMTQSPSSLSASVGDRVTITCRASQDISKYLNWYQQKPGKAPKLLIYHTSRLHSGVPSRFSGSGSGTDFTLTISSLQPEDFATYYCQQGNTLPYTFGGGTKVEIKEDLKNVFPPEVAVFEPSEAEISHTQKATLVCLATGFYPDHVELSWWVNGKEVHSGVSTDPQPLKEQPALNDSRYCLCSRLRVSATFWQNPRNHFRCQVQFYGLSENDEWTQDRAKPVTQIVSAEAWGRADCGFTSESYQQGVLSATILYEILLGKATLYAVLVSALVLMAMVKRKDSRG
TCR alpha: QVQLQESGPGLVKPSQTLSLTCTVSGVSLPDYGVSWIRQPPGKGLEWIGVIWGSETTYYNSALKSRVLISVDTSKNQVSLKLSSVTAADTAVYYCARHYYYGGSYAMDYWGQGTTVTVSSIQNPDPAVYQLRDSKSSDKSVCLFTDFDSQTNVSQSKDSDVYICDKTVLDMRSMDFKSNSAVAWSNKSDFACANAFNNSIIPEDTFFPSPESSCDVKLVEKSFETDTNLNFQNLSVIGFRILLLKVAGFNLLMTLRLWSS

- binding result [3]: no binding
- CD19-GGSG-NLuc (RLU) [4]: 768 RLU
B6: CD8SP-FMC63-vL-V5-[hTCRb-WT]-F-P2A-SP-FMC63-vH-Myc-[hTCRa-WT]-F-F2A-PAC (080815-F02)[SEQ ID NO:922] (other)
TCR beta: DIQMTQTTSSLSASLGDRVTISCRASQDISKYLNWYQQKPDGTVKLLIYHTSRLHSGVPSRFSGSGSGTDYSLTISNLEQEDIATYFCQQGNTLPYTFGGGTKLEITGKPIPNPLLGLDSTGSGEDLKNVFPPEVAVFEPSEAEISHTQKATLVCLATGFYPDHVELSWWVNGKEVHSGVSTDPQPLKEQPALNDSRYCLSSRLRVSATFWQNPRNHFRCQVQFYGLSENDEWTQDRAKPVTQIVSAEAWGRADCGFTSESYQQGVLSATILYEILLGKATLYAVLVSALVLMAMVKRKDSRG
TCR alpha: EVKLQESGPGLVAPSQSLSVTCTVSGVSLPDYGVSWIRQPPRKGLEWLGVIWGSETTYYNSALKSRLTIIKDNSKSQVFLKMNSLQTDDTAIYYCAKHYYYGGSYAMDYWGQGTSVTVSSEQKLISEEDGSGIQNPDPAVYQLRDSKSSDKSVCLFTDFDSQTNVSQSKDSDVYITDKTVLDMRSMDFKSNSAVAWSNKSDFACANAFNNSIIPEDTFFPSPESSCDVKLVEKSFETDTNLNFQNLSVIGFRILLLKVAGFNLLMTLRLWSS
notes: SIR with wild-type TCR constant chains; Polyprotein PRT 3157

- binding result [5]: no binding
B7: CD8SP-FMC63-vL-V5-[hTCRb-KACIAH]-F-P2A-PAC (other)
TCR beta: DIQMTQTTSSLSASLGDRVTISCRASQDISKYLNWYQQKPDGTVKLLIYHTSRLHSGVPSRFSGSGSGTDYSLTISNLEQEDIATYFCQQGNTLPYTFGGGTKLEITGKPIPNPLLGLDSTGSGEDLKNVFPPEVAVFEPSKAEIAHTQKATLVCLATGFYPDHVELSWWVNGKEVHSGVCTDPQPLKEQPALNDSRYCLSSRLRVSATFWQNPRNHFRCQVQFYGLSENDEWTQDRAKPVTQIVSAEAWGRADCGITSASYHQGVLSATILYEILLGKATLYAVLVSALVLMAMVKRKDSRG
notes: One functional polypeptide unit alone in Jurkat-NFAT-GFP cells; PRT 3148; also called 050216-S08

- binding result [5]: no binding
B8: CD8SP-FMC63-vH-MYC-[TCRα-CSDVP]-F-F2A-BlastR (other)
TCR alpha: EVKLQESGPGLVAPSQSLSVTCTVSGVSLPDYGVSWIRQPPRKGLEWLGVIWGSETTYYNSALKSRLTIIKDNSKSQVFLKMNSLQTDDTAIYYCAKHYYYGGSYAMDYWGQGTSVTVSSEQKLISEEDGSGIQNPDPAVYQLRDSKSSDKSVCLFTDFDSQTNVSQSKDSDVYITDKCVLDMRSMDFKSNSAVAWSNKSDFACANAFNNSIIPEDTFFPSSDVPCDVKLVEKSFETDTNLNFQNLSVIGFRILLLKVAGFNLLMTLRLWSS
notes: One functional polypeptide unit alone in Jurkat-NFAT-GFP cells; PRT 3232; also called 041916-A02
